Measured values: publication PMC3950706, “SUMOylation of the polycomb group protein L3MBTL2 facilitates repression of its target genes” (Nucleic Acids Research, 2013)
Where no end group is shown, it is not given here. Me3 = tri-methylation (trimethyl-lysine); Me2 = di-methylation (dimethyl-lysine)

How the values were obtained:
Conditions in all cases: both partners purified
wild-type 3xFLAG-L3MBTL2 = molecular target: T1, wild-type 3xFLAG-L3MBTL2 (human, UniProt Q969R5 1-705); test: pull-down; histone peptides immobilised on resin; 3xFLAG-L3MBTL2 immunoprecipitated from N-ethylmaleimide-treated nuclear extracts of stably transfected HEK293 cells and then incubated with the peptides; bound protein detected by anti-FLAG western blot
T1 construct: L3MBTL2, human, wild type; The cellular wild-type protein is partly SUMOylated (SUMO2/3 at K675 and K700); Associated proteins may be present after the immunoprecipitation; also called FLAG-L3MBTL2 WT; 3xFLAG-L3MBTL2 WT; source: HEK293, stably transfected, immunoprecipitated from N-ethylmaleimide-treated nuclear extracts

[1] = molecular target: T2, 3xFLAG-L3MBTL2 K675/700R mutant (human, UniProt Q969R5 1-705, K675/700R | K675/700R); test: as above
T2 construct: L3MBTL2, human, with K675R and K700R; Associated proteins may be present after the immunoprecipitation; also called SUMOylation-defective L3MBTL2; K/R; source: HEK293, stably transfected, immunoprecipitated from N-ethylmaleimide-treated nuclear extracts

[2] = molecular target: T3, recombinant full-length His-L3MBTL2 (human, UniProt Q969R5 1-705); test: pull-down; histone peptides immobilised by a C-terminal cysteine on SulfoLink Coupling Resin; recombinant His-tagged proteins in 25 mM Tris-HCl pH 8, 150 mM NaCl, 2 mM EDTA, 0.5% NP 40, 1 h at 4°C (time course 5-60 min); bound protein detected by anti-His western blot; for SUMOylated L3MBTL2 the in vitro SUMOylation reaction was used
T3 construct: L3MBTL2 (Lethal(3) malignant brain tumour like 2), human, full length; also called 6xHis-L3MBTL2; His-L2; source: bacterially expressed, recombinant

[3] = molecular target: T4, 4xMBT-repeat domain of L3MBTL2 (human, UniProt Q969R5 170-619); test: as above
T4 construct: L3MBTL2, human, isolated 4xMBT-repeat domain, aa 170-619; also called His-4xMBT

Measured: binding result

T1 sequence (Q969R5 whole entry): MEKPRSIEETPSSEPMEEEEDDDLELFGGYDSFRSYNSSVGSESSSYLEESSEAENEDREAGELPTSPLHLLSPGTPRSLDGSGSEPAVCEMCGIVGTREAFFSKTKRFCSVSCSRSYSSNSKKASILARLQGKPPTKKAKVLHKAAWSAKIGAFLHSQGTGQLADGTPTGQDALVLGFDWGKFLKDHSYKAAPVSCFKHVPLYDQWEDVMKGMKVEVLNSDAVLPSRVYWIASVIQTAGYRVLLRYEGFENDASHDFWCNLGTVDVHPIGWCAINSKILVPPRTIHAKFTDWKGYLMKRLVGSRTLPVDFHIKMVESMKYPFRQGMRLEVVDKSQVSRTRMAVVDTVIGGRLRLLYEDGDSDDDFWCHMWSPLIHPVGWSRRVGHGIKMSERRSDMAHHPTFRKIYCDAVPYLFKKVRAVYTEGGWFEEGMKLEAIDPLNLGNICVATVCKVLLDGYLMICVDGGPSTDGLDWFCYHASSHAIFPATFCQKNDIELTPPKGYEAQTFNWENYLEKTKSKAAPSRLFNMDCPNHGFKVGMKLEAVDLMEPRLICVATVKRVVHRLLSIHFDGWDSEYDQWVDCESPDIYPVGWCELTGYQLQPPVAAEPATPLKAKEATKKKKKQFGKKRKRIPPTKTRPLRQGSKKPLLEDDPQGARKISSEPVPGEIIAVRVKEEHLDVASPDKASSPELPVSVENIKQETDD
T3 sequence (Q969R5 whole entry): as above
T2 sequence (Q969R5 other isoform, or with tags, fused parts or gaps K675/700R | K675/700R | K675/700R | K675/700R | mutant): as the sequence (Q969R5 whole entry) above, with K675R, K700R counted along it
T4 sequence (Q969R5 170-619): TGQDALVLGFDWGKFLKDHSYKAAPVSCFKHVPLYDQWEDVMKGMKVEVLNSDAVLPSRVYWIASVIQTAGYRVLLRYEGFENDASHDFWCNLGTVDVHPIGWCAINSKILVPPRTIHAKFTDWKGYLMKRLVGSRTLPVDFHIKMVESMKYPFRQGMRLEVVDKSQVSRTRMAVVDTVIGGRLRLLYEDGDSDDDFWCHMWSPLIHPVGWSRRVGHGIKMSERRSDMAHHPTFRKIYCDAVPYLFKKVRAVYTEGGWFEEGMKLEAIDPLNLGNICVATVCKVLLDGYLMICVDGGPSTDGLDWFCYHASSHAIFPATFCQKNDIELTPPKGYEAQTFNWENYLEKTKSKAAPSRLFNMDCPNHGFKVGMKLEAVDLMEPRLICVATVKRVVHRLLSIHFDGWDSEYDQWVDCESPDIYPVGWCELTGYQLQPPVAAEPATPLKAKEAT

B1: histone H3 peptide (residues 1-15) tri-methylated at K9 (peptide)
peptide: ARTKQTARKSTGGKAC
modifications: trimethyl-lysine at K9
notes: histone H3, residues 1-15; added C-terminal cysteine, by which the peptide was coupled to SulfoLink resin; also called H3K9me3
binds: wild-type 3xFLAG-L3MBTL2 | [1] | [2]

B2: unmethylated histone H3 peptide (residues 1-15) (peptide)
peptide: ARTKQTARKSTGGKAC
notes: histone H3, residues 1-15; added C-terminal cysteine, by which the peptide was coupled to SulfoLink resin
binds: wild-type 3xFLAG-L3MBTL2 | [1] | [2]

B3: histone H4 peptide (residues 16-25) mono-methylated at K20 (peptide)
peptide: KRHRK(Me)VLRDNC
notes: histone H4, residues 16-25; added C-terminal cysteine, by which the peptide was coupled to SulfoLink resin; also called H4K20me1
binds: wild-type 3xFLAG-L3MBTL2 | [1] | [2]

B4: histone H4 peptide (residues 16-25) di-methylated at K20 (peptide)
peptide: KRHRK(Me2)VLRDNC
notes: histone H4, residues 16-25; added C-terminal cysteine, by which the peptide was coupled to SulfoLink resin; also called H4K20me2
binds: all assays above

B5: histone H3 peptide (residues 1-15) mono-methylated at K9 (peptide)
peptide: ARTKQTARKSTGGKAC
modifications: monomethyl-lysine at K9
notes: histone H3, residues 1-15; added C-terminal cysteine, by which the peptide was coupled to SulfoLink resin; also called H3K9me1
binds: wild-type 3xFLAG-L3MBTL2 | [1] | [2]

B6: histone H3 peptide (residues 1-15) di-methylated at K9 (peptide)
peptide: ARTKQTARKSTGGKAC
modifications: dimethyl-lysine at K9
notes: histone H3, residues 1-15; added C-terminal cysteine, by which the peptide was coupled to SulfoLink resin; also called H3K9me2
binds: wild-type 3xFLAG-L3MBTL2 | [1] | [2]

B7: histone H4 peptide (residues 16-25) tri-methylated at K20 (peptide)
peptide: KRHRK(Me3)VLRDNC
notes: histone H4, residues 16-25; added C-terminal cysteine, by which the peptide was coupled to SulfoLink resin; also called H4K20me3
binds: wild-type 3xFLAG-L3MBTL2 | [1] | [2]

B8: unmethylated histone H4 peptide (residues 16-25) (peptide)
peptide: KRHRKVLRDNC
notes: histone H4, residues 16-25; added C-terminal cysteine, by which the peptide was coupled to SulfoLink resin; also called H4K20
binds: wild-type 3xFLAG-L3MBTL2 | [1] | [2]
